Like-named read-outs stand apart in the source and are kept apart here.
Tests used:
[1] = molecular target: T1, human IL4Rα on HEK293T-IL4Rα-STAT6-STAT6LUC-LB2 cells (human, UniProt P24394 26-825); assay: cell-based or functional assay
[2] = molecular target: T1, human IL4Rα on …; assay: cell-based or functional assay; remark: listed apart in the source
[3] = molecular target: T2, recombinant human IL4Rα-his protein (human, UniProt P24394 26-232, biotinylated in the capture ELISA and the benchmark blocking ELISA); assay: SPR Biacore, mAb captured, IL4Rα-his analyte
T2 construct: also called biotinylated human IL4Rα-his protein
Description: Briefly, a goat anti-human IgG (GE Healthcare, Cat. No. BR100839, Human Antibody Capture Kit) was covalently attached to a CMS chip (carboxymethylated dextran-coated chip) via the primary amine group using a standard amine coupling kit supplied by Biacore (GE Healthcare, Pittsburgh, PA, USA). Unreacted portions on the biosensor surface were blocked with ethanolamine. Then, the anti-IL4Rα antibody in the present disclosure at 66.67 nM and an anti-IL4Rα antibody benchmark (dupilumab, or DUPIXENT® or BM) at 10 μg/mL were directed through the chip at a flow rate of 10 μL/min. A recombinant human IL4Rα-his protein (prepared in-house, amino acid sequence set forth in SEQ ID NO: 15), a cynomolgus monkey IL4Rα-his protein (Sino Biological Inc., Cat. No. 90897-008H), or a marmoset monkey IL4Rα-his protein (customized product from Sino Biological Inc., denoted as cal-IL4Rα-his, amino acid sequence set forth in SEQ ID NO: 16) serially diluted with an HBS EP buffer (supplied by Biacore) was directed through the chip at a flow rate of 30 μIJmin. The antigen-antibody binding kinetics was tracked for 2 min and the dissociation kinetics was tracked for 10 min. The association and dissociation curves were fitted according to a 1:1 Langmuir binding model using BIA evaluation software, and the KD, Kₐ, and Kd values were determined.
According to the protocol in the examples above, the binding affinity of the humanized antibodies to human IL4Rα was assessed by the BIAcore technique, and the Kₐ, Kd, and KD values were determined and summarized in Table 3.

[4] = molecular target: T2, recombinant human IL4Rα-his protein; assay: SPR Biacore, mAb captured from supernatant, IL4Rα-his analyte

B1: Chimeric C2C1A1A1 (antibody, human IgG4 S228P, kappa, V domains shown)
VH: EVQLVESGGGLVQPGGSLKLSCAASGFTFSTYGMSWVRQTPDKRLELVATINSNGGSTSYPDSVKGRFTISRDNAKNTLYLQMSSLKSEDTAMFYCARFFRFRNAMDYWGQGTSVTVSS
VL: DIQMTQSPASLSASVGETVTITCRTSENIYSYLAWYQQKQGKSPQFLVYNAKTLAEGVPSRFSGSGSGTQFSLNINSLQSEDFGSYYCQHYYGPPTWTFGGGTKLEIKR
notes: Mouse variable regions on human IgG4 / kappa constant regions; also called chimeric antibody; Supernatant containing chimeric C2C1A1A1
[1]
  Inhibition of IL4-induced STAT6 phosphorylation (IC50, nM): 0.26 nM
  Inhibition of IL13-induced STAT6 phosphorylation (IC50, nM): 0.39 nM
[2]
  Inhibition of IL4-induced STAT6 phosphorylation (IC50, nM): 0.27 nM
  Inhibition of IL13-induced STAT6 phosphorylation (IC50, nM): 0.56 nM
[3]
  Dissociation (%): -1.94%
  End (RU): 65.8 RU
  Kd: < 30.4 pM
  Start (RU): 67.1 RU
  koff: < 1e-05 s⁻¹
[4]
  Kd: 111 pM
  koff: 4.04e-05 s⁻¹

Source: patent US20240343815A1 (CHIA TAI TIANQING PHARMACEUTICAL GROUP, published 2024)
